For this test, the target named is insulin receptor partially purified from CHO-IR cells (Chinese Hamster Ovary cells expressing high levels of insulin receptors of human origin) (human) (UniProt P06213). As to the kind of experiment: cell-based or functional assay.

GST-PIR+SH2 of rGrb14, sequence (O88900 353-538): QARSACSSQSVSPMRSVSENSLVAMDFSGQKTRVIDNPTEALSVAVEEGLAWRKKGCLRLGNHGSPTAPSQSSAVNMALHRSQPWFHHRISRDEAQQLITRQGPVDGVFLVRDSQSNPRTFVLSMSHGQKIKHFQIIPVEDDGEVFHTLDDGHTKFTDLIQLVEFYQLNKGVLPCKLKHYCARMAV
GST-rGrb14, sequence (O88900 whole entry): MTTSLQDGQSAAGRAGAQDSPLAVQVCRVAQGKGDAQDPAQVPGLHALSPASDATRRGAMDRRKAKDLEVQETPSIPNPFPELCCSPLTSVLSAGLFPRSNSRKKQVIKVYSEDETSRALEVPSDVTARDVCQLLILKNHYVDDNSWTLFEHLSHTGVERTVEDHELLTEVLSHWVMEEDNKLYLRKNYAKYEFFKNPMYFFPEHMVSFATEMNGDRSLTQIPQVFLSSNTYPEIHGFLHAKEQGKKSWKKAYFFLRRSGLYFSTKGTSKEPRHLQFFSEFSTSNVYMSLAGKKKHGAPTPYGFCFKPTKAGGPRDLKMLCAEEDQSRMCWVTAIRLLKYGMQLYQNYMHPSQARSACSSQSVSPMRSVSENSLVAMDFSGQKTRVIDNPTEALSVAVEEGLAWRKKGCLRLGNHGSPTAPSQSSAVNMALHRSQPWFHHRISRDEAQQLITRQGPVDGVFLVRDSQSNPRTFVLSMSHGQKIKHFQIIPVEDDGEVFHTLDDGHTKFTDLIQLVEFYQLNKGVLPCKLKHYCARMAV

GST-rGrb14 (from UniProt O88900 1-538) yielded an amount giving 50% inhibition of the tyrosine kinase activity of the receptors (32P incorporation into poly Glu-Tyr) of 0.04 µg.
With “GST-PIR+SH2 of rGrb14 (from UniProt O88900 353-538)”, the amount giving the maximum inhibitory effect on the tyrosine kinase activity of the insulin receptors turned out to be 0.03 µg.
“GST-PIR of rGrb14 (from UniProt O88900 353-436)” yielded an amount giving total inhibition of the tyrosine kinase activity of the insulin receptors of 0.3 µg.
Turning to GST-rGrb7 (from UniProt Q9QZC5 1-535), the maximum inhibition of the tyrosine kinase activity of the insulin receptors came to 40%.
